Measurements taken from publication PMC10599462, “Molecular basis of sulfolactate synthesis by sulfolactaldehyde dehydrogenase from Rhizobium leguminosarum” (Chemical Science, 2023).
Read-outs that look alike come from different tables or passages of the source. Each block holds one molecule with its values, some of them ahead of it.

Tests used:
[1] = biological target: SLA dehydrogenase RlGabD from Rhizobium leguminosarum SRDI565 (Rhizobium leguminosarum bv. trifolii SRDI565); assay: SEC-MALS; SEC-MALLS of RlGabD in solution; homotetramer
[2] = biological target: T1, RlGabD (SLA dehydrogenase) (Rhizobium leguminosarum, UniProt A0AAJ6N661); assay: enzyme inhibition assay with constant SLA and NAD+; type: biochemical; set-up: gene EV132_10158; recombinant RlGabD
T1 sequence (A0AAJ6N661 1-489): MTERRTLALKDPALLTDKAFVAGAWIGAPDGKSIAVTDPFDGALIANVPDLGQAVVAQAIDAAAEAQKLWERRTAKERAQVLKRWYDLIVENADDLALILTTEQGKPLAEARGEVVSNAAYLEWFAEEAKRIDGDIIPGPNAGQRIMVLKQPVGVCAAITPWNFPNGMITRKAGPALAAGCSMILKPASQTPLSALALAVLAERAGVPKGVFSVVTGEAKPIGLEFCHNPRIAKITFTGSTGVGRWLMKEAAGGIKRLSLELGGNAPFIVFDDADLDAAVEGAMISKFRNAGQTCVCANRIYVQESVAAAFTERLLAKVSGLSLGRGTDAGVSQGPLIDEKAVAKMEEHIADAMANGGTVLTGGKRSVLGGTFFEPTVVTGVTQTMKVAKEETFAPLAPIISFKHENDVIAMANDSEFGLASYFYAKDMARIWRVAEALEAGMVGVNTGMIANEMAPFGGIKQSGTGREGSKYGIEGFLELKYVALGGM

[3] = biological target: T1, RlGabD (SLA dehydrogenase); assay: biochemical; set-up: gene EV132_10158; recombinant RlGabD; nanoDSF thermal shift (F350/F330 intrinsic fluorescence) of recombinant RlGabD with ligand; conditions: nanoDSF, average of 2 replicates; read-out: ∆Tm (Avg)
[4] = biological target: T1, RlGabD (SLA dehydrogenase); assay: biochemical; set-up: gene EV132_10158; recombinant RlGabD; nanoDSF thermal shift (F350/F330 intrinsic fluorescence) of recombinant RlGabD with ligand; conditions: nanoDSF, average of 2 replicates; read-out: ∆Tm (Avg); remark: listed apart in the source
[5] = biological target: T1, RlGabD (SLA dehydrogenase); assay: cryo-EM structure of binary complex at […] Å; type: binding; set-up: gene EV132_10158; recombinant RlGabD tetramer
purified protein [6] = substrate: NC(=O)c1ccc[n+]([C@@H]2O[C@H](COP(=O)([O-])OP(=O)(O)OC[C@H]3O[C@@H](n4cnc5c(N)ncnc54)[C@H](O)[C@@H]3O)[C@@H](O)[C@H]2O)c1; assay: purified protein; type: biochemical, Rhizobium leguminosarum; conditions: binds first to enzyme (rapid equilibrium ordered mechanism); varied: cofactor
purified protein [7] = substrate: O=CC(O)CS(=O)(=O)O; assay: purified protein; type: biochemical, Rhizobium leguminosarum; conditions: NAD+ proposed: Cys295 nucleophile, Glu261 general base, Asn163 oxyanion hole, Arg171/Arg289 sulfonate binding
purified protein [8] = substrate: O=CC(O)COP(=O)(O)O; assay: purified protein; conditions: NADP+
purified protein [9] = substrate: NC(=O)c1ccc[n+]([C@@H]2O[C@H](COP(=O)([O-])OP(=O)(O)OC[C@H]3O[C@@H](n4cnc5c(N)ncnc54)[C@H](OP(=O)(O)O)[C@@H]3O)[C@@H](O)[C@H]2O)c1; assay: purified protein; conditions: […]′-phosphate binding residues Ser179 and Lys182 (E. coli SSADH numbering) conserved; varied: cofactor

stoichiometry N [1]: 4
Molecule: SLA dehydrogenase RlGabD from Rhizobium leguminosarum SRDI565 (enzyme)

IC50 [2]: 28 µM
Molecule: NC(=O)C1=CN([C@@H]2O[C@H](COP(=O)(O)OP(=O)(O)OC[C@H]3O[C@@H](n4cnc5c(N)ncnc54)[C@H](O)[C@@H]3O)[C@@H](O)[C@H]2O)CCC1 [tetrahydro-NADH]

ΔTm at 10000 µM [3]: 4.3 °C
Molecule: NC(=O)c1ccc[n+]([C@@H]2O[C@H](COP(=O)([O-])OP(=O)(O)OC[C@H]3O[C@@H](n4cnc5c(N)ncnc54)[C@H](O)[C@@H]3O)[C@@H](O)[C@H]2O)c1 [NAD^+]

ΔTm at 10000 µM [3]: 3.5 °C
Molecule: NC(=O)c1ccc[n+]([C@@H]2O[C@H](COP(=O)([O-])OP(=O)(O)OC[C@H]3O[C@@H](n4cnc5c(N)ncnc54)[C@H](OP(=O)(O)O)[C@@H]3O)[C@@H](O)[C@H]2O)c1 [NADP^+]

ΔTm at 10000 µM [4]: 2.5 °C
Molecule: NC(=O)C1=CN([C@@H]2O[C@H](COP(=O)(O)OP(=O)(O)OC[C@H]3O[C@@H](n4cnc5c(N)ncnc54)[C@H](OP(=O)(O)O)[C@@H]3O)[C@@H](O)[C@H]2O)C=CC1 [NADPH]

ΔTm at 10000 µM [3]: 1.5 °C
Molecule: NC(=O)C1=CN([C@@H]2O[C@H](COP(=O)(O)OP(=O)(O)OC[C@H]3O[C@@H](n4cnc5c(N)ncnc54)[C@H](O)[C@@H]3O)[C@@H](O)[C@H]2O)C=CC1 [NADH]
cryo-EM structure of binary complex at 2.52 Å [5]: The RlGabD·NADH complex shows the binding mode and positioning of the cofactor.

B1: RlGabD (SLA dehydrogenase) (Rhizobium leguminosarum bv. trifolii SRDI565) (protein)
chain: MTERRTLALKDPALLTDKAFVAGAWIGAPDGKSIAVTDPFDGALIANVPDLGQAVVAQAIDAAAEAQKLWERRTAKERAQVLKRWYDLIVENADDLALILTTEQGKPLAEARGEVVSNAAYLEWFAEEAKRIDGDIIPGPNAGQRIMVLKQPVGVCAAITPWNFPNGMITRKAGPALAAGCSMILKPASQTPLSALALAVLAERAGVPKGVFSVVTGEAKPIGLEFCHNPRIAKITFTGSTGVGRWLMKEAAGGIKRLSLELGGNAPFIVFDDADLDAAVEGAMISKFRNAGQTCVCANRIYVQESVAAAFTERLLAKVSGLSLGRGTDAGVSQGPLIDEKAVAKMEEHIADAMANGGTVLTGGKRSVLGGTFFEPTVVTGVTQTMKVAKEETFAPLAPIISFKHENDVIAMANDSEFGLASYFYAKDMARIWRVAEALEAGMVGVNTGMIANEMAPFGGIKQSGTGREGSKYGIEGFLELKYVALGGM
notes: recombinant RlGabD
Km (purified protein [6]): 81 ± 19 µM
kcat (purified protein [6]): 17.7 ± 3.2 s⁻¹
kcat/Km (purified protein [6]): 210000 ± 63000 M⁻¹ s⁻¹
Km (purified protein [7]): 130 ± 40 µM
kcat (purified protein [7]): 17.8 ± 7 s⁻¹
kcat/Km (purified protein [7]): 137000 ± 72000 M⁻¹ s⁻¹
Km (purified protein [8]): 170 ± 28 µM
kcat (purified protein [8]): 3 s⁻¹
kcat/Km (purified protein [8]): 10500 M⁻¹ s⁻¹
Km (purified protein [9]): 17 ± 4.1 µM
kcat (purified protein [9]): 4.1 s⁻¹
kcat/Km (purified protein [9]): 240000 M⁻¹ s⁻¹
